This passage reports response results from article PMC11746154 (2023).

The chains are these.
B1: Gal4AD-Rec104 [S. cerevisiae] / LexA-Rec102 [S. cerevisiae] (parent complex)
chain 1: MSIEEEDTNKITCTQDFLHQYFVTERVSIQFGLNNKTVKRINKDEFDKAVNCIMSWTNYPKPGLKRTASTYLLSNSFKKSATVSLPFILGDPVCMPKRVESNNNDTCLLYSDTLYDDPLIQRNDQAGDEIEDEFSFTLLRSEVNEIRPISSSSTAQILQSDYSALMYERQASNGSIFQFSSP
chain 2: MARDITFLTVFLESCGAVNNDEAGKLLSAWTSTVRIEGPESTDSNSLYIPLLPPGMLKIKLNFKMNDRLVTEEQELFTKLREIVGSSIRFWEEQLFYQVQDVSTIENHVILSLKCTILTDAQISTFISKPRELHTHAKGYPEIYYLSELSTTVNFFSKEGNYVEISQVIPHFNEYFSSLIVSQLEFEYPMVFSMISRLRLKWQQSSLAPISYALTSNSVLLPIMLNMIAQDKSSTTAYQILCRRRGPPIQNFQIFSLPAVTYNK

In the assay the parent is B1. Kind of assay: Y2H β-galactosidase assay; parent: 0.97; read off a plot.
For chain 1 MSIEEEDTNKATCTQDFLHQYFVTERVSIQFGLNNKTVKRINKDEFDKAVNCIMSWTNYPKPGLKRTASTYLLSNSFKKSATVSLPFILGDPVCMPKRVESNNNDTCLLYSDTLYDDPLIQRNDQAGDEIEDEFSFTLLRSEVNEIRPISSSSTAQILQSDYSALMYERQASNGSIFQFSSP [chain 1 I11A], the response was ~0.93 normalized β-gal units.
The same measure for chain 1 MSIEEEDTNKITCTQDFLHQYFVTERVSIQFGLNNKTVKRINKDEFDKAANCIMSWTNYPKPGLKRTASTYLLSNSFKKSATVSLPFILGDPVCMPKRVESNNNDTCLLYSDTLYDDPLIQRNDQAGDEIEDEFSFTLLRSEVNEIRPISSSSTAQILQSDYSALMYERQASNGSIFQFSSP [chain 1 V50A]: ~1.2 normalized β-gal units.
The same measure for chain 1 MSIEEEDTNKIACTQDFLHQYFVTERVSIQFGLNNKTVKRINKDEFDKAVNCIMSWTNYPKPGLKRTASTYLLSNSFKKSATVSLPFILGDPVCMPKRVESNNNDTCLLYSDTLYDDPLIQRNDQAGDEIEDEFSFTLLRSEVNEIRPISSSSTAQILQSDYSALMYERQASNGSIFQFSSP [chain 1 T12A]: ~0.75 normalized β-gal units; for chain 1 MSIEEEDTNKITCTQDFLHQAFVTERVSIQFGLNNKTVKRINKDEFDKAVNCIMSWTNYPKPGLKRTASTYLLSNSFKKSATVSLPFILGDPVCMPKRVESNNNDTCLLYSDTLYDDPLIQRNDQAGDEIEDEFSFTLLRSEVNEIRPISSSSTAQILQSDYSALMYERQASNGSIFQFSSP [chain 1 Y21A]: ~1.1 normalized β-gal units; for chain 1 MSIEEEDTNKITCTQDFLHQYFVTERVSIQFGANNKTVKRINKDEFDKAVNCIMSWTNYPKPGLKRTASTYLLSNSFKKSATVSLPFILGDPVCMPKRVESNNNDTCLLYSDTLYDDPLIQRNDQAGDEIEDEFSFTLLRSEVNEIRPISSSSTAQILQSDYSALMYERQASNGSIFQFSSP [chain 1 L33A]: ~0.87 normalized β-gal units.
